By Kd is commonly meant the free concentration of one partner at which half of the binding sites on the other are occupied at equilibrium, for simple one-to-one binding. Read a low Kd as a tighter complex.

Experiment in all cases: EMSA
Data set [1] addresses coreTFIIH (7-subunit: XPB, XPD, p62, p52, p44, p34, p8);XPG (human;human, UniProt P19447;P18074;P32780;Q92759;Q13888;Q13889;Q6ZYL4;P28715 …, |).
Data set [2] concerns the target coreTFIIH (7-subunit: XPB, XPD, p62, p52, p44, p34, p8) (human, UniProt P19447;P18074;P32780;Q92759;Q13888;Q13889;Q6ZYL4 …).
For the next data set, the target named is T1, XPG (human, UniProt P28715 2-1186).
T1 sequence: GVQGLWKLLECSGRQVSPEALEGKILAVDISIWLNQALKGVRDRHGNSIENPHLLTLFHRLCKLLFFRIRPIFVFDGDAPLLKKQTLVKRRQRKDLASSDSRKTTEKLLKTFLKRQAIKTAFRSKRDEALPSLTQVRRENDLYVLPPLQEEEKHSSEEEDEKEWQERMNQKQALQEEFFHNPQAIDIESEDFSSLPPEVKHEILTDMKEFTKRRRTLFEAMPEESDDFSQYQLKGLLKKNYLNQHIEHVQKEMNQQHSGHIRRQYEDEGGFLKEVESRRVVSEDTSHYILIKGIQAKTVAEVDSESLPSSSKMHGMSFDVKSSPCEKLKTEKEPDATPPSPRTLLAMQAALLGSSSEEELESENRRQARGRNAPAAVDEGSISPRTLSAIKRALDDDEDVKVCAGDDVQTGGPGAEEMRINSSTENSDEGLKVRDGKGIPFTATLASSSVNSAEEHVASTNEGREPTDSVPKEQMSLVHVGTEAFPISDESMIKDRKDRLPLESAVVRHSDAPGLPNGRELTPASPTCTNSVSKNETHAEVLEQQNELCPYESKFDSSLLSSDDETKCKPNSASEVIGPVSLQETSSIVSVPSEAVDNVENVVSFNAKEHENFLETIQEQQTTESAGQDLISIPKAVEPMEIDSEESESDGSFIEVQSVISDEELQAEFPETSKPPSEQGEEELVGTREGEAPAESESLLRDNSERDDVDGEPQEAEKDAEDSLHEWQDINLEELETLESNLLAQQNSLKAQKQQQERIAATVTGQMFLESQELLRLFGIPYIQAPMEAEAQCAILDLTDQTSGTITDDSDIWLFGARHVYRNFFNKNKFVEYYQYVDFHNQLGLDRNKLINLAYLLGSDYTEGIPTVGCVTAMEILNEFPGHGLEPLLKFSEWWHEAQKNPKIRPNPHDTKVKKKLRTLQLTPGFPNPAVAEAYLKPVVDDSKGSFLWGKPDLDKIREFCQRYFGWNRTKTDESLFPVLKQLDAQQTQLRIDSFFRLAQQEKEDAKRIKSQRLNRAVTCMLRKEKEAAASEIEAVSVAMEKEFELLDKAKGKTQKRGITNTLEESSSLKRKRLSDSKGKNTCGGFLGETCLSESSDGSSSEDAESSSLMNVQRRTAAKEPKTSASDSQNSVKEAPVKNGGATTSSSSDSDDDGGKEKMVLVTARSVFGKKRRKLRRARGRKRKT

B1: 3'Cy5 40ss/24ds (mixed)
DNA 1: TTTTTTTTTTTTTTTTTTTTTTTTTTTTTTTTTTTTTTTTGCTGTTGCCCGTCTCACTGGTGAA
DNA 2: TTCACCAGTGAGACGGGCAACAGC
For the molecule B1, the dissociation constant (Kd) in data set [1] is around 19 nM; in data set [2], around 82 nM; with XPG, around 134 nM.

The record behind these values is article PMC9943652.
